In test [1] the target is Flag-RAI-3 recombinant protein expressed in the stable Flag-RAI-3 CHO cell line (CHO/NFAT G alpha 15), clone B8 (human) (UniProt Q8NFJ5). Briefly: FACS, gating 100%; parental CHO mean signal 4.82.
For test [2] the target is unchanged. Briefly: FACS, clone B8 against parental CHO.

Sequence of UniProt Q8NFJ5 (Q8NFJ5 other isoform, or with tags, fused parts or gaps): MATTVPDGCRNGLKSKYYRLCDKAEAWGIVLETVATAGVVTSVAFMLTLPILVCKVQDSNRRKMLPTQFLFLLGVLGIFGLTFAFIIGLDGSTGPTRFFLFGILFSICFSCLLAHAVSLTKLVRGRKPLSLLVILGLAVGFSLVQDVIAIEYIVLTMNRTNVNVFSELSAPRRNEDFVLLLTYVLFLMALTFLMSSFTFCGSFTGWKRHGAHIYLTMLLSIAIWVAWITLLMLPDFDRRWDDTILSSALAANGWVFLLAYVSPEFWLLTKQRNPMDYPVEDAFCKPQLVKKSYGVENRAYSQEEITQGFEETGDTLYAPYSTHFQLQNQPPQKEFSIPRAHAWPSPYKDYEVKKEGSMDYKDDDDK

Turning to “Anti-FLAG FITC (Sigma, Catalog #F4049) (antibody)”, the mean signal in test [1] amounted to 35. The fold over background in test [2] was determined as 7 fold.

(Values after patent US20040121362A1.)
